{"source": "patent US20220363757A1", "about": "(SYMPHOGEN A S, published 2022)", "binders": {"B1": {"name": "Fab fragment of antibody 15532 (Fab, V domains shown, not shown: a dimerising Fc or GST)", "VH": "QVQLQQWGAGLLRPSETLSLTCAVYGESFSGYYWNWIRQPPGKGLEWIGEINHSGSTNYNPSLKSRVTISVDTSKTQFSLKLSSVTAADTAVYYCARGWDLLDWNDYWNEYWGQGTLVTVSS", "VL": "EIVLTQSPATLSLSPGERATLSCRASQSVSSYLAWYQQKPGQAPRLLIYDASNRATGIPARFSGSGSGTDFTLTISSLEPEDFAVYYCQQRSNWPLTFGGGTKVEIKR", "notes": "monomeric Fab made by GingisKHAN digestion of the IgG1"}, "B2": {"name": "Fab fragment of antibody 15431 (Fab, V domains shown, not shown: a dimerising Fc or GST)", "VH": "QVQLQQSGPGLVKPSQTLSLTCAISGDSVSSNSAAWNWIRQSPSRGLEWLGRTYYRSKWYNDYAVSVKSRITINPDTSKNQFSLQLNSVTPEDTAVYYCARDDDWNDFDYWGQGTLVTVSS", "VL": "EIVLTQSPATLSLSPGERATLSCRASQSVSSYLAWYQQKPGQAPRLLIYDASNRATGIPARFSGSGSGTDFTLTISSLEPEDFAVYYCQQRSNWPLTFGGGTKVEIKR", "notes": "as for B1"}, "B3": {"name": "Fab fragment of antibody 15011 (Fab, V domains shown, not shown: a dimerising Fc or GST)", "VH": "EVQLLESGGGLVQPGGSLRLSCAASGFDFRSYAMMWVRQAPGKGLEWVGGINGEVGGSNTYYAPAVKGRATISRDNSKNTLYLQMNSLRAEDTAVYYCVKGAGACGICNDDIDAWGQGTLVTVSS", "VL": "SYELTQDPAVSVALGQTVRITCSGAGSYAGSYYYGWHQQKPGQAPVTVIYDNDKRPSNIPDRFSGSSSGNTASLTITGAQAEDEADYYCGSTNDNDDGGLFGSGTKVTVLG", "notes": "as for B1"}, "B4": {"name": "Fab fragment of antibody 15572 (Fab, V domains shown, not shown: a dimerising Fc or GST)", "VH": "QLQLQESGPGLVKPSETLSLTCTVSGDSISSSSYYWGWIRQPPGKGLEWIGSIFYSGNTYYNPSLKSRVTISVDTSKNQFSLKLSSVTAADTAVYYCAREDDFLTDYYGAFDIWGQGTMVTVSS", "VL": "not shown", "notes": "as for B1"}}, "experiment_in_all_cases": "SPR, Fab over captured mutant LAG-3-Fc;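 note: LAG-3 fusion proteins captured on an anti-human IgG Fc sensor chip and read on an IBIS MX96 biosensor, Fab association and dissociation each 15 min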", "key": {"[1]": {"target": "T1, human LAG-3 domain 1-2 Fc fusion, chimeric construct #1 (mutated region AA 23-30) (human, UniProt P18627 31-266)", "T1 construct": "not shown: human IgG1 Fc, AA P101-K330", "T1 sequence": "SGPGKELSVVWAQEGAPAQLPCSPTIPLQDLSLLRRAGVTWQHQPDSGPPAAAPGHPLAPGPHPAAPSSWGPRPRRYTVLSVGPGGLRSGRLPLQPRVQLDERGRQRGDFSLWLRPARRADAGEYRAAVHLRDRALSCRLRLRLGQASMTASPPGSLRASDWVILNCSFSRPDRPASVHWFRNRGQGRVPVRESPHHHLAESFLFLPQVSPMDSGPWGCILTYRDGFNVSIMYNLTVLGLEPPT"}, "[2]": {"target": "T2, human LAG-3 domain 1-2 Fc fusion, chimeric construct #2 (mutated region AA 29-30) (human, UniProt P18627 23-266)", "T2 construct": "not shown: human IgG1 Fc, AA P101-K330", "T2 chain": "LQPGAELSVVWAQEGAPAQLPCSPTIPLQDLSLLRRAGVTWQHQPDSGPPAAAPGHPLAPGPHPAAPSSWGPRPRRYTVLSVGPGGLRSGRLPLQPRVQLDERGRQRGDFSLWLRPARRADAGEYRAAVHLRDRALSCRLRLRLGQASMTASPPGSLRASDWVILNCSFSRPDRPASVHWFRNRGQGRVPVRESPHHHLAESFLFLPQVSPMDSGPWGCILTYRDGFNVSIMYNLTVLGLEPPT"}, "[3]": {"target": "T3, human LAG-3 domain 1-2 Fc fusion, chimeric construct #3 (mutated region AA 40-41) (human, UniProt P18627 23-266)", "T3 construct": "not shown: human IgG1 Fc, AA P101-K330", "T3 chain": "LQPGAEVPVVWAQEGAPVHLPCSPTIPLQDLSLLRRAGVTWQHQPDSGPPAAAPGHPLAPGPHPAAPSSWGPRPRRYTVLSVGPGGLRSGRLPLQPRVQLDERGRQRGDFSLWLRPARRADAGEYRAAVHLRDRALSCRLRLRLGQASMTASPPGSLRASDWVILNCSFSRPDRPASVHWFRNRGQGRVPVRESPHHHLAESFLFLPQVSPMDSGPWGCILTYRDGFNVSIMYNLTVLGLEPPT"}, "[4]": {"target": "T4, human LAG-3 domain 1-2 Fc fusion, chimeric construct #5 (mutated region AA 46-51) (human, UniProt P18627 23-266)", "T4 construct": "not shown: human IgG1 Fc, AA P101-K330", "T4 chain": "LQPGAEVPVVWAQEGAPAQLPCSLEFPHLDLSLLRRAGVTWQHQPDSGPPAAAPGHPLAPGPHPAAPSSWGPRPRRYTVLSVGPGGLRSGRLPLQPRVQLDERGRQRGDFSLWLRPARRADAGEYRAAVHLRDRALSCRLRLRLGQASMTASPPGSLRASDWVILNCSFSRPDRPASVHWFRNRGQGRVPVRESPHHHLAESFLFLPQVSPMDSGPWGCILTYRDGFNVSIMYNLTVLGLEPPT"}, "[5]": {"target": "T5, human LAG-3 domain 1-2 Fc fusion, chimeric construct #7 (mutated region AA 53-60) (human, UniProt P18627 23-266)", "T5 construct": "not shown: human IgG1 Fc, AA P101-K330", "T5 chain": "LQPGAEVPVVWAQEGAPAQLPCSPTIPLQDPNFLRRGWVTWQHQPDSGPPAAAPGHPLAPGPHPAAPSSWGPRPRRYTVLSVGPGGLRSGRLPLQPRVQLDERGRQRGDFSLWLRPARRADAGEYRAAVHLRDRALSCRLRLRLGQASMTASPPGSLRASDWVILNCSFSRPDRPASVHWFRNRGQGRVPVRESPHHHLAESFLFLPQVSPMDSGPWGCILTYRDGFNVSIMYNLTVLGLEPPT"}, "[6]": {"target": "T6, human LAG-3 domain 1-2 Fc fusion, chimeric construct #8 (mutated region AA 59-66) (human, UniProt P18627 23-266)", "T6 construct": "not shown: human IgG1 Fc, AA P101-K330", "T6 chain": "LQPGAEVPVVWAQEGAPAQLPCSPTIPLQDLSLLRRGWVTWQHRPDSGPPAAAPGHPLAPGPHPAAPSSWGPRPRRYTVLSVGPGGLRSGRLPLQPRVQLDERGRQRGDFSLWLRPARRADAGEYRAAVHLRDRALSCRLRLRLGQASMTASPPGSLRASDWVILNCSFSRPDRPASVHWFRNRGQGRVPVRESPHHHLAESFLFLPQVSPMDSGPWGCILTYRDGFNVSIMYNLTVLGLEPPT"}, "[7]": {"target": "T7, human LAG-3 domain 1-2 Fc fusion, chimeric construct #18 (mutated region AA 114-119) (human, UniProt P18627 23-266)", "T7 construct": "not shown: human IgG1 Fc, AA P101-K330", "T7 chain": "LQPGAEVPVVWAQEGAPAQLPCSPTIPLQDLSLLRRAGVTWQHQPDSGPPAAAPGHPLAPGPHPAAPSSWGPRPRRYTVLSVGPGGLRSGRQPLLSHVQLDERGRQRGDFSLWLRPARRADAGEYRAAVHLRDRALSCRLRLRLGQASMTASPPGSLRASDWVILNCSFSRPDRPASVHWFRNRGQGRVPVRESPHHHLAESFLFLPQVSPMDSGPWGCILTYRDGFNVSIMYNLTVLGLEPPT"}, "[8]": {"target": "T8, human LAG-3 domain 1-2 Fc fusion, chimeric construct #27 (mutated region AA 161-166) (human, UniProt P18627 23-266)", "T8 construct": "not shown: human IgG1 Fc, AA P101-K330", "T8 chain": "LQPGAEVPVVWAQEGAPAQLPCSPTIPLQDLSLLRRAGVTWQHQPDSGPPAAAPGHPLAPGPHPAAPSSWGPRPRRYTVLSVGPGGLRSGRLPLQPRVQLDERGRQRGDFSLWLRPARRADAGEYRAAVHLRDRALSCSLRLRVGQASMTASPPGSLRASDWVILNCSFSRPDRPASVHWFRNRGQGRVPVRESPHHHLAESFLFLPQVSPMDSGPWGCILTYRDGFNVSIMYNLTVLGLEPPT"}}, "data": [{"binder": "B1", "values": [{"measurement": "KD mutant/KD wild type", "setting": "[1]", "value": 3.2, "unit": "fold"}, {"measurement": "KD mutant/KD wild type", "setting": "[2]", "value": 3.1, "unit": "fold"}, {"measurement": "KD mutant/KD wild type", "setting": "[3]", "value": 2.2, "unit": "fold"}, {"measurement": "KD mutant/KD wild type", "setting": "[4]", "value": 2.7, "unit": "fold"}, {"measurement": "KD mutant/KD wild type", "setting": "[5]", "value": 3.4, "unit": "fold"}, {"measurement": "KD mutant/KD wild type", "setting": "[6]", "value": 2.7, "unit": "fold"}, {"measurement": "KD mutant/KD wild type", "setting": "[7]", "value": 1.1, "unit": "fold"}, {"measurement": "KD mutant/KD wild type", "setting": "[8]", "value": 0.8, "unit": "fold"}]}, {"binder": "B2", "values": [{"measurement": "binding result", "setting": "[1]", "value": "no binding (tested: 300 nM)"}, {"measurement": "binding result", "setting": "[2]", "value": "no binding (tested: 300 nM)"}, {"measurement": "binding result", "setting": "[3]", "value": "no binding (tested: 300 nM)"}, {"measurement": "binding result", "setting": "[4]", "value": "no binding (tested: 300 nM)"}, {"measurement": "binding result", "setting": "[5]", "value": "no binding (tested: 300 nM)"}, {"measurement": "binding result", "setting": "[6]", "value": "no binding (tested: 300 nM)"}, {"measurement": "KD mutant/KD wild type", "setting": "[7]", "value": 0.6, "unit": "fold"}, {"measurement": "KD mutant/KD wild type", "setting": "[8]", "value": 1.3, "unit": "fold"}]}, {"binder": "B3", "values": [{"measurement": "KD mutant/KD wild type", "setting": "[1]", "value": 0.5, "unit": "fold"}, {"measurement": "KD mutant/KD wild type", "setting": "[2]", "value": 0.5, "unit": "fold"}, {"measurement": "KD mutant/KD wild type", "setting": "[3]", "value": 0.5, "unit": "fold"}, {"measurement": "KD mutant/KD wild type", "setting": "[4]", "value": 0.5, "unit": "fold"}, {"measurement": "KD mutant/KD wild type", "setting": "[5]", "value": 0.5, "unit": "fold"}, {"measurement": "KD mutant/KD wild type", "setting": "[6]", "value": 0.5, "unit": "fold"}, {"measurement": "KD mutant/KD wild type", "setting": "[7]", "value": 2.1, "unit": "fold"}, {"measurement": "KD mutant/KD wild type", "setting": "[8]", "value": 2.3, "unit": "fold"}]}, {"binder": "B4", "values": [{"measurement": "binding result", "setting": "[1]", "value": "no binding (tested: 300 nM)"}, {"measurement": "binding result", "setting": "[2]", "value": "no binding (tested: 300 nM)"}, {"measurement": "binding result", "setting": "[3]", "value": "no binding (tested: 300 nM)"}, {"measurement": "binding result", "setting": "[4]", "value": "no binding (tested: 300 nM)"}, {"measurement": "binding result", "setting": "[5]", "value": "no binding (tested: 300 nM)"}, {"measurement": "binding result", "setting": "[6]", "value": "no binding (tested: 300 nM)"}, {"measurement": "KD mutant/KD wild type", "setting": "[7]", "value": 0.6, "unit": "fold"}, {"measurement": "KD mutant/KD wild type", "setting": "[8]", "value": 1.7, "unit": "fold"}]}]}
